Patent US10087225B2, “Formulation of MK2 inhibitor peptides” (MOERAE MATRIX, INC., priority 2015, dated 2018)

Legend:
Assay in all cases: Kinase Profiling Assay
Type in all cases: biochemical
[1] = target: Met(h) (Homo sapiens, UniProt P08581); conditions: 100 μM
[2] = target: Hck(h) activated (Homo sapiens, UniProt P08631); conditions: 100 μM
[3] = target: IR(h) (Homo sapiens, UniProt P06213); conditions: 100 μM
[4] = target: PKBα(h) (Homo sapiens, UniProt P31749); conditions: 100 μM
[5] = target: CDK5/p35(h) (Homo sapiens, UniProt Q00535); conditions: 100 μM
[6] = target: PKBβ(h) (Homo sapiens, UniProt P31751); conditions: 100 μM
[7] = target: Met(M1268T)(h) (Homo sapiens, UniProt P08581, M1250T); conditions: 100 μM
[8] = target: T1, BrSK2(h) (Homo sapiens, UniProt Q8IWQ3)
T1 sequence (Q8IWQ3 1-736): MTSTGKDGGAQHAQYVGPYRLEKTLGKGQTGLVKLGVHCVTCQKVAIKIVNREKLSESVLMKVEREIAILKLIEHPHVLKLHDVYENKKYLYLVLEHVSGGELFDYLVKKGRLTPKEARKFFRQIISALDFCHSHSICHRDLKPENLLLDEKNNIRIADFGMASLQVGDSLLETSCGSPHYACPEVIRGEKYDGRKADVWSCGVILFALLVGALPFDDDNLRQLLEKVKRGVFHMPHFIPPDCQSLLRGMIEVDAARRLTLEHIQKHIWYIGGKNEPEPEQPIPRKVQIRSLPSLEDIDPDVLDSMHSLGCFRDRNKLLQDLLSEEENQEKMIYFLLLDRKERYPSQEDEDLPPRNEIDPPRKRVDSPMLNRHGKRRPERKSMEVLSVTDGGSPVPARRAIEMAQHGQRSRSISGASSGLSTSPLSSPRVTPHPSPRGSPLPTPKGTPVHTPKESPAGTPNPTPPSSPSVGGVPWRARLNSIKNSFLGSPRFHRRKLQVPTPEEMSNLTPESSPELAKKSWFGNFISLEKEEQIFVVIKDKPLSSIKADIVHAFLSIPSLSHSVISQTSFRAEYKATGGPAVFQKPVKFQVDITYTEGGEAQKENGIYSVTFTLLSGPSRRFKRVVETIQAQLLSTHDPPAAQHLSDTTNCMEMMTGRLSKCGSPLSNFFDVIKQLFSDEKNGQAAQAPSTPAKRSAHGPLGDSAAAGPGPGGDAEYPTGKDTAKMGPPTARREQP

[9] = target: cKit(V654A)(h) (Homo sapiens, UniProt P10721, V654A)
[10] = target: T2, JAK3(h) (Homo sapiens, UniProt P52333)
T2 sequence (P52333 1-1124): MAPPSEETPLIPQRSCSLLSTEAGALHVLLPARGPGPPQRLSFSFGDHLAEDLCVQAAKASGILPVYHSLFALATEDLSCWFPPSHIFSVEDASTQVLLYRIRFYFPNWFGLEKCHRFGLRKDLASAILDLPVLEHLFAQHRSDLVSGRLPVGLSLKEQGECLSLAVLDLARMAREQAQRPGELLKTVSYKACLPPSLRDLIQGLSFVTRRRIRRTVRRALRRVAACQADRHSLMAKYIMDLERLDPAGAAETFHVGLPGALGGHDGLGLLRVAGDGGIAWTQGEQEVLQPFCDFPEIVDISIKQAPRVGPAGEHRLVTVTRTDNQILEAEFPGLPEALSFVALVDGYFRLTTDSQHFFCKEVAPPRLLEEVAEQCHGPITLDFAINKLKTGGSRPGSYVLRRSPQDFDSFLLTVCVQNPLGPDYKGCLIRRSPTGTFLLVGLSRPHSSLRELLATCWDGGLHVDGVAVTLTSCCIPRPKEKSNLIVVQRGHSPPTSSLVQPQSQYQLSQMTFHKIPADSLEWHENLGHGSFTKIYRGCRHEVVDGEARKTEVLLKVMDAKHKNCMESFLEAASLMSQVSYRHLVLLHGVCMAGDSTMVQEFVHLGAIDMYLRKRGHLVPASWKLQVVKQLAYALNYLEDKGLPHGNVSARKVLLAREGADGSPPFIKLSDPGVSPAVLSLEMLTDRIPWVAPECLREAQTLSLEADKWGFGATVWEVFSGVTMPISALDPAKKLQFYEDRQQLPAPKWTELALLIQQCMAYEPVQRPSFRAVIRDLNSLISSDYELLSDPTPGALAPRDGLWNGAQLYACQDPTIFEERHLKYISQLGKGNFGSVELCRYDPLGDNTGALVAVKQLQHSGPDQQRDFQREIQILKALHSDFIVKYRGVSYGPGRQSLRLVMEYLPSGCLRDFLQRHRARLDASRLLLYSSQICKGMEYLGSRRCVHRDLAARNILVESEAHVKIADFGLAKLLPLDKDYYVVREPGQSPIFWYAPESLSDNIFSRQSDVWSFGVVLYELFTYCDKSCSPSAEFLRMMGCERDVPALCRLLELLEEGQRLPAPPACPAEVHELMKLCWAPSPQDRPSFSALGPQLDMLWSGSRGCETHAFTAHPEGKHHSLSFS

Chain of PKBα(h) (P31749 whole entry): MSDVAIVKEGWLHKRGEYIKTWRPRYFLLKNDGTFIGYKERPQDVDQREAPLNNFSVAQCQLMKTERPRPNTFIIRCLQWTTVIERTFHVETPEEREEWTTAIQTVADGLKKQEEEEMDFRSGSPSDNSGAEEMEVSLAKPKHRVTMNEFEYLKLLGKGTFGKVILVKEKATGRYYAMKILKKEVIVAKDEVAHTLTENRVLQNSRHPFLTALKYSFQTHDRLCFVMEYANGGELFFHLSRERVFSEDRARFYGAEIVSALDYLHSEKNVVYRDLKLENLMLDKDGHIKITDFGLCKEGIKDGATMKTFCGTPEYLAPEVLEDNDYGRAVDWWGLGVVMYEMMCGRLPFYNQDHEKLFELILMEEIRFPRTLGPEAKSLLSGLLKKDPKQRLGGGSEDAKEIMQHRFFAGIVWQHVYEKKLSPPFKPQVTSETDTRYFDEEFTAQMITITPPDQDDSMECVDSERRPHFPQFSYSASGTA
Chain of CDK5/p35(h) (Q00535 whole entry): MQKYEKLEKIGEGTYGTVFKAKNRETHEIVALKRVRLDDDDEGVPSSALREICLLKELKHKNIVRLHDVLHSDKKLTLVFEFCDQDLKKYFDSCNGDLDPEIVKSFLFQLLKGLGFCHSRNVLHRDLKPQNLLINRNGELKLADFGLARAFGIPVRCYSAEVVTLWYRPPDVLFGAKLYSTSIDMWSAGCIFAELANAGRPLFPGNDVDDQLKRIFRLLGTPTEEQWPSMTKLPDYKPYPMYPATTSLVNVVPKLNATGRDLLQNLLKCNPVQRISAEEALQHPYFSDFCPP
Chain of CDK5/p35(h) (Q15078 whole entry partner): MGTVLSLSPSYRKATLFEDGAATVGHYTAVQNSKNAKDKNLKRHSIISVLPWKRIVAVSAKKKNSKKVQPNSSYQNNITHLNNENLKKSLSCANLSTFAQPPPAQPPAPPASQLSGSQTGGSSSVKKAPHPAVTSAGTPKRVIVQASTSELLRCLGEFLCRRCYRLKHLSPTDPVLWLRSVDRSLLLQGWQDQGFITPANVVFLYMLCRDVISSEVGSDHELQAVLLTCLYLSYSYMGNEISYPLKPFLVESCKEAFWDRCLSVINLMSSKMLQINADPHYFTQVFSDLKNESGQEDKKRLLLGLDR
Chain of Hck(h) activated (P08631 whole entry): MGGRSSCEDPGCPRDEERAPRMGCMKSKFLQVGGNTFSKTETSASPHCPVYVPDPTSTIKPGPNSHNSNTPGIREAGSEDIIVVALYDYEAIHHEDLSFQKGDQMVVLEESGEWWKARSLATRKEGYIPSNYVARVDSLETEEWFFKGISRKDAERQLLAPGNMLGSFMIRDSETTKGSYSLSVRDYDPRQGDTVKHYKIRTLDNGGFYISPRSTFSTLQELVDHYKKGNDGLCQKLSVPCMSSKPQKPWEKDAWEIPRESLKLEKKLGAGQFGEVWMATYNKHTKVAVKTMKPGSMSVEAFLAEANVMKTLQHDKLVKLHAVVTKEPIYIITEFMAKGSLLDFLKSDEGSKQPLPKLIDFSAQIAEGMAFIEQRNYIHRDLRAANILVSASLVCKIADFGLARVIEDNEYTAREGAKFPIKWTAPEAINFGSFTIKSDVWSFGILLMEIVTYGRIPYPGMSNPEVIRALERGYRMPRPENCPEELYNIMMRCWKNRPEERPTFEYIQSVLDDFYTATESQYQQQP
Chain of PKBβ(h) (P31751 whole entry): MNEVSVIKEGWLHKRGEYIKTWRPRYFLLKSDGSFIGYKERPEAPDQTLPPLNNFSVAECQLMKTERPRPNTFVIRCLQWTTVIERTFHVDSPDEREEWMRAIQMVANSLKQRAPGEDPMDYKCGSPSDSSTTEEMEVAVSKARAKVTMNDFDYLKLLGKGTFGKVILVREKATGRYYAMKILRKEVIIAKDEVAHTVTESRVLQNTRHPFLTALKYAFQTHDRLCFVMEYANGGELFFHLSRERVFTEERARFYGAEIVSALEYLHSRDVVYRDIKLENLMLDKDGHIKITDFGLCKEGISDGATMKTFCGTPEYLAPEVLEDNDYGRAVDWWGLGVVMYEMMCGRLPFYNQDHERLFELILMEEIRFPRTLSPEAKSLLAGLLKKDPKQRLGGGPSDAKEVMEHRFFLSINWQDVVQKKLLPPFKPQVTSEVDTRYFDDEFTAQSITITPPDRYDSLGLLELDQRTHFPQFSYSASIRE

Row | Substance | % activity [1] [%] | % activity [2] [%] | % activity [3] [%] | % activity [4] [%] | % activity [5] [%] | % activity [6] [%] | % activity [7] [%] | activity at 100 µM [8] [%] | activity at 100 µM [9] [%] | activity at 100 µM [10] [%] | % activity ([8]; 100 μM) [%] | % activity ([9]; 100 μM) [%] | % activity ([10]; 100 μM) [%]
1 | YARAAARQARAKALNRQLGVA (Mammalian) [MMI-0200] | 71 | 100 | 90 | 110 | 92 | 250 | 143 | – | – | – | – | – | –
2 | H-YARAAARQARAKALARQLGVAA-OH [MMI-0100] | – | – | – | – | – | – | – | 129 | 69 | 150 | – | – | –
3 | HRRIKAWLKKIKALARQLGVAA (Mammalian) [MMI-0500] | 27 | 67 | 95 | 30 | 59 | 21 | 239 | – | – | – | 84 | 223 | 95
